# In patent US20250195679A1, “ANTIBODY-DRUG CONJUGATE AND USE THEREOF” (SHANGHAI HUAOTA BIOPHARMACEUTICAL CO., LTD., priority 2022, published 2025):
# T1: Human CD73 (Homo sapiens, UniProt P21589)
# T1 sequence (P21589 27-547 limits assumed): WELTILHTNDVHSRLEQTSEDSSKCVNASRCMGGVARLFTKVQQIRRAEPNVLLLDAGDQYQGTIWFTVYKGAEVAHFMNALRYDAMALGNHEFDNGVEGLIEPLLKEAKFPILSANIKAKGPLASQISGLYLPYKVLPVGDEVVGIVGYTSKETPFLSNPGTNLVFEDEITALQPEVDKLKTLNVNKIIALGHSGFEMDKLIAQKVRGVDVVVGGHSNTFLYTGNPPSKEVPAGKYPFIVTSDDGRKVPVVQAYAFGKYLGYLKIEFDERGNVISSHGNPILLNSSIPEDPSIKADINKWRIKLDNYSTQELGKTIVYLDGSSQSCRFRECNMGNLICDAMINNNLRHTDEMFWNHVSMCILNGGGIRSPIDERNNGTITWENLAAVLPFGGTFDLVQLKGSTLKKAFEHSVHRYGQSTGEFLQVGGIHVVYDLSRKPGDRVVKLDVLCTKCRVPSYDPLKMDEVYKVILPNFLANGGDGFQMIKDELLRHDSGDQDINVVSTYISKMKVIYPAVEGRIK
# Key:
# MDA-MB-231 cells = test: Killing of tumor cells highly expressing CD73 (CellTiter-Glo); assay type: cell-based, human; details: cells highly expressing CD73, 5 days, FIG. 6
# Method: (§1) The specific procedures were as follows: MDA-MB-231 cells and MCF-7 cells were prepared into cell suspensions at densities of 8E4 cells/mL and 7.5E5 cells/mL, respectively, which were then each added onto a 96-well cell culture plate at 100 μL per well. The 96-well cell culture plate was sealed with liquid and then incubated in an incubator at 37° C. with 5% CO2 for 6 h. With an assay medium, the antibody-drug conjugate 1, the antibody-drug conjugate 2, and the 900698 naked antibody were each diluted to 400 μg/mL and then subjected to a 2-fold dilution to give 8 concentrations, resulting in a total of 9 concentrations. The same dilution procedure was performed for the Buffer solution as for the antibody-drug conjugate 1. The gradient dilution solutions were each added at 50 μL/well to the 96-well cell culture plate after the above incubation was completed. Each sample well was then supplemented with 50 μL of the corresponding assay medium. The 96-well cell culture plate was further incubated in an incubator at 37° C. with 5% CO2 for another 5 days. After the incubation was completed, the 96-well plate was removed from the incubator, 100 μL of culture medium was aspirated from each well, and then the equilibrated Celltiter-Glo Luminescent Cell Viability Assay reagent (Promega, #G7573) was added at 100 μL/well. After shaking for reaction in the dark at room temperature for 10 min, 100 μL of culture medium was taken from each well, transferred to the corresponding well of a 96-well black plate, and then subjected to full-wavelength detection using a microplate reader.
# MCF-7 cells = test: Killing of tumor cells not expressing CD73 (CellTiter-Glo); assay type: cell-based; details: cells not expressing CD73, 5 days, FIG. 5
# Method: as §1
# Monkey CD73 = test: Biacore binding kinetics with monkey CD73 protein; details: Monkey CD73, Biacore T200, protein A chip, 25° C., 1:1 binding model
# Method: (§2) The binding kinetics of the antibody-drug conjugate 1 and the antibody-drug conjugate 2 prepared in Example 1 and the 900698 naked antibody with a human CD73 protein (manufacturer: ACRO Biosystems, Cat. No. CD3-H52H7) and a monkey CD73 protein (manufacturer: Novoprotein, Cat. No. CI21) were assayed using Biacore (GE, model: T200), with an assay buffer of HBS-EP+ (pH 7.4) and a protein A chip (manufacturer: GE, Cat. No. 29-1275-56).
# (§3) The temperature for the sample compartment and the flow path was set to 25° C. The protein A chip captured each antigen-binding protein as a ligand, fixing about 100 RU. The human CD73 protein was diluted with the assay buffer to a series of concentrations of 50 nM, 25 nM, 12.5 nM, 6.25 nM, 3.12 nM, and 1.57 nM, serving as analytes, and the assay buffer was used as a 0 concentration control. At a flow rate of 30 μL/min, association was conducted for 120 s, and dissociation was conducted for 600 s. Glycine (10 mM, pH 1.5) was used for regeneration at a flow rate of 50 μL/min for 60 s in a multi-cycle kinetic assay. A 1:1 binding model was used, and the Fit Local mode was selected to determine the association rate constant (ka), dissociation rate constant (kd), and equilibrium dissociation constant (KD).
# Human CD73 = target: T1, Human CD73; test: Biacore binding kinetics with human CD73 protein; set-up: purchased ACRO Biosystems CD3-H52H7; details: Human CD73, Biacore T200, protein A chip, 25° C., 1:1 binding model
# Method: as §2, §3
molecule,measurement,setting,value
"Antibody-drug conjugate 1: 900698 antibody cysteine-conjugated to SN-38 via Mc-VC-PAB-DMEDA-PEG linker, DAR about 7.8 (conjugate) VH: QVQLVESGGGLVKPGGSLRLSCAASGFTFSKYAMSWIRQAPGKGLEWVAEISSGGGYINYADSVKGRFTISRDNAKNSLYLQMNSLRAEDTAVYYCARAIYYYGSSYNYYAMDYWGQGTTVTVSS VL: DIQMTQSPSSLSASVGDRVTITCRASQDVGTAEAWYQQKPGKAPKLLIYWASTRHTGVPSRFSGSGSGTDFTLTISSLQPEDFATYYCQQYSSYPLTFGQGTKLEIK",killing effect on MDA-MB-231 cells,MDA-MB-231 cells,excellent killing effects
same,killing effect on MCF-7 cells,MCF-7 cells,no killing effect
same,ka,Monkey CD73,55000 M⁻¹ s⁻¹
same,kd,Monkey CD73,1.92e-06 s⁻¹
same,ka,Human CD73,381000 M⁻¹ s⁻¹
same,kd,Human CD73,0.000129 s⁻¹
"900698: anti-CD73 antibody, VH SEQ ID NO: 35, VL SEQ ID NO: 34 (antibody, V domains shown, 900696, 900698 (VH); 900695, 900698 (VL)) VH: QVQLVESGGGLVKPGGSLRLSCAASGFTFSKYAMSWIRQAPGKGLEWVAEISSGGGYINYADSVKGRFTISRDNAKNSLYLQMNSLRAEDTAVYYCARAIYYYGSSYNYYAMDYWGQGTTVTVSS VL: DIQMTQSPSSLSASVGDRVTITCRASQDVGTAEAWYQQKPGKAPKLLIYWASTRHTGVPSRFSGSGSGTDFTLTISSLQPEDFATYYCQQYSSYPLTFGQGTKLEIK",killing effect on MDA-MB-231 cells,MDA-MB-231 cells,no killing effect
same,killing effect on MCF-7 cells,MCF-7 cells,no killing effect
same,ka,Monkey CD73,148000 M⁻¹ s⁻¹
same,kd,Monkey CD73,1.8e-05 s⁻¹
same,ka,Human CD73,147000 M⁻¹ s⁻¹
same,kd,Human CD73,0.000104 s⁻¹
"Antibody-drug conjugate 2: 900698 antibody cysteine-conjugated to SN-38 via MP2-VC-PAB-DMEDA-PEG linker, DAR about 7.8 (conjugate) VH: QVQLVESGGGLVKPGGSLRLSCAASGFTFSKYAMSWIRQAPGKGLEWVAEISSGGGYINYADSVKGRFTISRDNAKNSLYLQMNSLRAEDTAVYYCARAIYYYGSSYNYYAMDYWGQGTTVTVSS VL: DIQMTQSPSSLSASVGDRVTITCRASQDVGTAEAWYQQKPGKAPKLLIYWASTRHTGVPSRFSGSGSGTDFTLTISSLQPEDFATYYCQQYSSYPLTFGQGTKLEIK",killing effect on MDA-MB-231 cells,MDA-MB-231 cells,excellent killing effects
same,killing effect on MCF-7 cells,MCF-7 cells,no killing effect
same,ka,Monkey CD73,454000 M⁻¹ s⁻¹
same,kd,Monkey CD73,0.000114 s⁻¹
same,ka,Human CD73,643000 M⁻¹ s⁻¹
same,kd,Human CD73,0.000228 s⁻¹
